Measured values as given in patent US20220332812A1, “TREATMENT METHODS FOR EYE DISORDERS” (University of Pittsburgh - of the Commonwealth System of …, priority 2019, published 2022).

Key:
diabetic Nuc1 rats = experiment: retinal function by electroretinography (ERG) in diabetic Nuc1 rats; type: in vivo, rat; details: FIGS. 20A-20B
Description: Therefore, βA1-crystallin is a first of its kind inhibitor that can be used as a therapy for DR.

PTP1B [1] = target: T1, PTP1B (Homo sapiens, UniProt P18031); experiment: PTP activity kinetics, Lineweaver Burk plots; type: biochemical; details: FIG. 13
T1 sequence (P18031 1-435): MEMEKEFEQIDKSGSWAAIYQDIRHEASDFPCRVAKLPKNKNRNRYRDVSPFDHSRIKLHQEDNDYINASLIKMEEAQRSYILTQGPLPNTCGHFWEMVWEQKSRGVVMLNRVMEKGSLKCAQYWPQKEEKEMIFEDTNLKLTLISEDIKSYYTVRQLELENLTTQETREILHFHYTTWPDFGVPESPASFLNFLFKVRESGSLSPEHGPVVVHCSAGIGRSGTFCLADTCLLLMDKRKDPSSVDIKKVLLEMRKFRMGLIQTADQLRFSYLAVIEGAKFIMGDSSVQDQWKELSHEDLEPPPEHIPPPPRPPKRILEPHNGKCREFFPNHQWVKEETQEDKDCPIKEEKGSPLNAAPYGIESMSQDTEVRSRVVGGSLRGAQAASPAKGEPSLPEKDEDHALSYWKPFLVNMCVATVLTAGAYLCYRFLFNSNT

PTP1B [2] = target: T1, PTP1B; experiment: human proteome high-throughput array, βA3/A1-crystallin binding partners; parameters: purchased CDI Laboratories, Inc; details: human proteome high-throughput array (CDI Laboratories)
PTP1B [3] = target: T1, PTP1B; experiment: pull-down assay; type: binding
PTP1B [4] = target: T2, PTP1B (Rattus norvegicus, UniProt P20417); experiment: co-immunoprecipitation in astrocytes; details: wild-type astrocytes; binding lost in Nuc1 cells
T2 construct: endogenous in cells; host or cells: astrocytes from wild-type and Nuc1 rats
T2 sequence (P20417 1-432): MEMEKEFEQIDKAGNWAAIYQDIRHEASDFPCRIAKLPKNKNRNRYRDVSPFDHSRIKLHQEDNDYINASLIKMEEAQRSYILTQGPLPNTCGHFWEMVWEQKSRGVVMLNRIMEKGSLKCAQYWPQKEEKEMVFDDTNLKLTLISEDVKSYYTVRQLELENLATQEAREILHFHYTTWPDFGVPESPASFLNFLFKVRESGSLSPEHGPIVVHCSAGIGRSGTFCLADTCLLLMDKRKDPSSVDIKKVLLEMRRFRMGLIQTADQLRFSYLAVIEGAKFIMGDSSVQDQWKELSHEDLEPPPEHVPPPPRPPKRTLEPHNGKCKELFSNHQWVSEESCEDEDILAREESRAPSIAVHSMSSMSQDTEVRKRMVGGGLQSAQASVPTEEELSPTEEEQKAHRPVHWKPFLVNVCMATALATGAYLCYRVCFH

NOD-SCID mice [5] = experiment: sub-retinal injection in NOD-SCID mice, OCT; type: in vivo, mouse
Description: (§1) NOD-SCID mice (NOD.CB17-Prkdescid/J, Jackson Laboratories, USA, male, 4-5 weeks old) were used for the study. A large sample size, n=10, was taken to nullify any experimental anomaly. Mice were anaesthetized and sub-retinal injections of neutrophils from different experimental groups or recombinant LCN-2 protein were given as described previously (Maruotti et al., Proc. Natl. Acad. Sci. USA., 112: 10950-10955 (2015)). Seven days after treatment, the NOD-SCID mice were anaesthetized by intraperitoneal injection of a ketamine and xylazine mixture and then subjected to Fundus imaging along with OCT analysis using the Bioptigen Envisu R2210 system. OCT images were analyzed on optical sections (100 sections per retina) from each eye ranging from −2.0 to +2.0 mm with respect to the optic nerve head (ONH) using the FIJI-ImageJ (NIH) plugin provided with the instrument along with Diver 2.4 software (Bioptigen). After the experiment, the animals were euthanized with CO2 gas and the eyes were harvested for further experiments. […]

NOD-SCID mice [6] = experiment: retinal sections of injected NOD-SCID mice: hematoxylin-eosin staining and immunofluorescence; type: in vivo, mouse
Experimental: Freshly enucleated eyes were fixed in 2% paraformaldehyde (PFA) for 10 min and then the anterior parts (cornea, lens, and attached iris pigmented epithelium) were removed. The resulting posterior eyecups were fixed in 2% PFA for 1 h at room temperature either for cryosections or RPE/retina flat mount. For cryosections, the eyecups were dehydrated through gradient sucrose solutions and embedded in OCT and for RPE/retina flatmounts, tissues were removed after the eyecup was quartered like a petaloid structure. The resulting eyecup was further cut radially into eight pieces from the optic nerve head to the periphery. Immunostaining on human/mouse retina sections or on retina/RPE flatmounts were performed by using appropriate primary antibody (1:100) and incubated at 4° C. overnight. The RPE/retina flatmounts or human or mouse retina sections were washed with 1×TBS thrice and then stained with appropriate secondary antibodies (1:300) with 1 μg/mL DAPI (Sigma Aldrich, USA) in the dark at room temperature for 2 h. The tissue sections or flatmounts were washed 6 times with 1×TBS. The tissues were mounted on a cover slip with DAKO mounting agent and then visualized under a confocal microscope (Zeiss LSM710, Switzerland).
as §1, with “Seven days after treatment, the NOD-SCID mice were anaesthetized by intraperitoneal injection of a ketamine and xylazine mixture and then subjected to Fundus imaging along with OCT analysis using the Bioptigen Envisu R2210 system.” left out, “(Bioptigen).” for “(Bioptigen). After the experiment, the animals were euthanized with CO2 gas and the eyes were harvested for further experiments.”

Dab2 = target: T3, Dab2 (Homo sapiens, UniProt P98082); experiment: HuProt human proteome microarray, LCN-2 binding partners; details: recombinant LCN-2 probed at 1 μg/mL, Z-score cutoff 6
T3 construct: purchased CDI NextGen Proteomics, MD, USA HuProt v3.1
T3 sequence (P98082 1-770): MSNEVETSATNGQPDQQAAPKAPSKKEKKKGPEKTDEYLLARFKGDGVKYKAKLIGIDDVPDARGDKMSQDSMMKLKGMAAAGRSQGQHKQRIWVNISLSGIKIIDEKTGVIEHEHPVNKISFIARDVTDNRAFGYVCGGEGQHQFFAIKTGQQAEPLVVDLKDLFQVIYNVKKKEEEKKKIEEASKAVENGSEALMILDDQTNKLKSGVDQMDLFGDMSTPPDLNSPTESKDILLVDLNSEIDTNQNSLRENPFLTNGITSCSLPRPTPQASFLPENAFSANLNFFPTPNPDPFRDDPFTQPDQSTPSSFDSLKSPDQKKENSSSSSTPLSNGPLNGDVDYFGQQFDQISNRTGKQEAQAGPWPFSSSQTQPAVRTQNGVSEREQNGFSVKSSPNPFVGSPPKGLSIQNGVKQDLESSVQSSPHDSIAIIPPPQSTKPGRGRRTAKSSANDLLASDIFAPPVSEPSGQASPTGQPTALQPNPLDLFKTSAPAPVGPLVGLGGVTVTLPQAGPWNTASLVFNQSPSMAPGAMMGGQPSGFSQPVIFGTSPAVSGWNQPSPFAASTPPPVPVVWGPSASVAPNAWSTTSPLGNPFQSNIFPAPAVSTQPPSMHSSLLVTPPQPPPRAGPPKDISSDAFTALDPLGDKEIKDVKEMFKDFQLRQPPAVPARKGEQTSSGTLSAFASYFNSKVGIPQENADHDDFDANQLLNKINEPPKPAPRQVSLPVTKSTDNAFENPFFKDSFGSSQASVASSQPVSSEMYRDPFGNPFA
Experimental: The human proteome microarray 2.0 analysis was performed as a paid service from CDI NextGen Proteomics, MD, USA. Recombinant LCN-2 was analyzed for protein-protein interaction profiling on the HuProt™ v3.1 human proteome array and the sample was probed on array plates at 1 μg/mL, with data analyzed using GenePix software. Hit identification was assessed as the ratio of median value of the foreground to the median of the surrounding background for each protein probe on the microarray, followed by normalization to the median value of all neighboring probes within the […] window size and represented as the significance of the probe binding signal difference from random noise (Z-Score). The cutoff Z-score was 6 in this study for the triplicate analysis; only protein interactions with a Z-score above 6 were considered.
The above-described observations prompted the further investigation of the possible molecular mechanisms by which neutrophils infiltrate into the retina and thereby contribute to the pathogenesis of AMD. It has previously been shown that LCN-2 regulates neutrophil chemotaxis and cell migration in cancer cells (Shao et al., J. Invest. Dermatol., 136, 1418-1428 (2016), and Du et al., Biochim. Biophys. Acta, 1853: 2240-2250 (2015)). […]

PTP1B (pull-down assay and enzyme kinetics)
Lineweaver Burk plots of PTP activity (Km and Vmax) (βA3/A1-crystallin): Cryba1 treatment decreases the Km and Vmax of PTP activity

CC(C)[C@@H](CC[C@@H](C)[C@H]1CC[C@H]2[C@@H]3[C@H](O)C[C@H]4C[C@@H](NCCCNCCCCNCCCN)CC[C@]4(C)[C@H]3CC[C@]12C)OS(=O)(=O)O [MSI-1436]
retinal function (ERG) (diabetic Nuc1 rats): rescues retinal function abnormality

B1: βA3/A1-crystallin: two closely related polypeptides encoded by Cryba1, produced by two different translational start sites; biological inhibitor binding PTP1B (protein)
chain: METQTVQRELETLPTTKMAQTNPMPGSMGPWKITIYDQENFQGKRMEFTSSCPNVSERSFDNVRSLKVECGAWIGYEHTSFCGQQFILERGEYPRWDAWSGSNAYHIERLMSFRPICSANHKESKITIFEKENFIGRQWEICDDYPSLQAMGWFNNEVGSMKIQCGAWVCYQYPGYRGYQYILECDHHGGDYKHWREWGTHAQTSQIQSIRRIQQ
Km of PTP activity (PTP1B [1]): decreases | Vmax of PTP activity (PTP1B [1]): decreases | mode of PTP1B inhibition (PTP1B [1]): uncompetitive inhibitor of PTP1B | interaction with PTP1B (PTP1B [2]): interact with PTP1B | binding to PTP1B (PTP1B [3]): bound to PTP1B | binding partner by co-immunoprecipitation (PTP1B [4]): PTP1B was a binding partner

B2: recombinant LCN-2: recombinant Lipocalin-2 protein, full length LCN-2 cDNA expressed in E. coli (protein)
chain: QDSTQNLIPAPSLLTVPLQPDFRSDQFRGRWYVVGLAGNAVQKKTEGSFTMYSTIYELQENNSYNVTSILVRDQDQGCRYWIRTFVPSSRAGQFTLGNMHRYPQVQSYNVQVATTDYNQFAMVFFRKTSENKQYFKITLYGRTKELSPELKERFTRFAKSLGLKDDNIIFSVPTDQCIDN
OCT retinal structure after injection of WT neutrophils pre-treated with the substance (NOD-SCID mice [5]; NOD-SCID mice injected subretinally, IFNλ 200 U/mL, conditioned media 1:1 diluted, LCN-2 10 pg/mL, FIG. 4(iii)-(v)): apparent changes in the ONL and INL layers (asterisks), concomitant with severe loss of RPE and IS+OS layer | OCT: alterations of retinal layers (NOD-SCID mice [5]; NOD-SCID mice, sub-retinal injection, after 7 days): alterations in the RPE and photoreceptor (inner and outer segments) layers | hematoxylin-eosin staining of retinal sections (NOD-SCID mice [6]; NOD-SCID mice, relative to vehicle control or WT neutrophil injected mice): degenerative changes in the outer nuclear layer (ONL) along with photoreceptor layer | thickness of retinal layers from sections by spider plot (NOD-SCID mice [6]; NOD-SCID mice, relative to vehicle or WT neutrophil-treated groups): severe loss or thinning of IS/OS and RPE layers | rhodopsin and RPE 65 staining (photoreceptor and RPE cell loss) (NOD-SCID mice [6]; immunofluorescence, retina of NOD-SCID mice, with respect to controls): reduced staining | interaction with Dab2 (Dab2): interact with Dab2
